Values quoted from earlier work, collected in patent publication US5866683A, “Isoelectric point markers for isoelectric focusing with fluorescence detection” (Laboratory of Molecular Biophotonics, priority 1995, dated 1999).
“And” between values parts separate entries of the source, which are not always exact repeats. Equal entries are not always repeated.

B1: lentilectin (protein, UniProt P02870 31-210; P02870 218-269, looked up)
Lectin beta chain: TETTSFSITKFSPDQKNLIFQGDGYTTKGKLTLTKAVKSTVGRALYSTPIHIWDRDTGNVANFVTSFTFVIDAPSSYNVADEFTFFIAPVDTKPQTGGGYLGVFNSKEYDKTSQTVAVEFDTFYNAAWDPSNKERHIGIDVNSIKSVNTKSWNLQNGERANVVIAFNAATNVLTVTLTYP
Lectin alpha chain: VTSYTLNEVVPLKDVVPEWVRIGFSATTGAEFAAHEVHSWSFHSELGGTSSS
notes: conventional protein pI marker, three pI's
B2: equine myoglobin (protein, UniProt P68082 2-154, looked up)
Myoglobin: GLSDGEWQQVLNVWGKVEADIAGHGQEVLIRLFTGHPETLEKFDKFKHLKTEAEMKASEDLKKHGTVVLTALGGILKKKGHHEAELKPLAQSHATKHKIPIKYLEFISDAIIHVLHSKHPGDFGADAQGAMTKALELFRNDIAAKYKELGFQG
notes: conventional protein pI marker
B3: trypsinogen (protein, UniProt P00760 18-246, looked up)
pro-form: VDDDDKIVGGYTCGANTVPYQVSLNSGYHFCGGSLINSQWVVSAAHCYKSGIQVRLGEDNINVVEGNEQFISASKSIVHPSYNSNTLNNDIMLIKLKSAASLNSRVASISLPTSCASAGTQCLISGWGNTKSSGTSYPDVLKCLKAPILSDSSCKSAYPGQITSNMFCAGYLEGGKDSCQGDSGGPVVCSGKLQGIVSWGSGCAQKNKPGVYTKVCNYVSWIKQTIASN
modifications: pro-form
notes: as for B2
B4: amyloglucosidase (protein, UniProt P69328 25-640, looked up)
Glucoamylase: ATLDSWLSNEATVARTAILNNIGADGAWVSGADSGIVVASPSTDNPDYFYTWTRDSGLVLKTLVDLFRNGDTSLLSTIENYISAQAIVQGISNPSGDLSSGAGLGEPKFNVDETAYTGSWGRPQRDGPALRATAMIGFGQWLLDNGYTSTATDIVWPLVRNDLSYVAQYWNQTGYDLWEEVNGSSFFTIAVQHRALVEGSAFATAVGSSCSWCDSQAPEILCYLQSFWTGSFILANFDSSRSGKDANTLLGSIHTFDPEAACDDSTFQPCSPRALANHKEVVDSFRSIYTLNDGLSDSEAVAVGRYPEDTYYNGNPWFLCTLAAAEQLYDALYQWDKQGSLEVTDVSLDFFKALYSDAATGTYSSSSSTYSSIVDAVKTFADGFVSIVETHAASNGSMSEQYDKSDGEQLSARDLTWSYAALLTANNRRNSVVPASWGETSASSVPGTCAATSAIGTYSSVTVTSWPSIVATGGTTTTATPTGSGSVTSTSKTTATASKTSTSTSSTSCTTPTAVAVTFDLTATTTYGENIYLVGSISQLGDWETSDGIALSADKYTSSDPLWYVTVTLPAGESFEYKFIRIESDDSVEWESDPNREYTVPQACGTSTATVTDTWR

Settings: unlabeled protein

Molecule	pI (known) of conventional protein pI marker
B1	7.80 and 8.00 and 8.20
B2	7.00
B3	9.30
B4	3.50
